{
  "source": "patent US20130230453A1",
  "about": "“DIAGNOSIS AND TREATMENT OF BRAIN TUMORS” (Welcome Receptor Antibodies Pty Ltd, priority 2010, published 2013)",
  "key": {"[1]": {"molecular_target": "human calcitonin receptor, endogenous (GBM tissue, A172 glioblastoma cell line) (human) (UniProt P30988)", "assay": "cell-based or functional assay", "settings": "scale: log EC50"}, "CTR [2]": {"molecular_target": "T1, CTR (Homo sapiens, UniProt P30988)", "T1 construct": "cMyc; expressed in transfected cells", "T1 sequence (P30988 25-474)": "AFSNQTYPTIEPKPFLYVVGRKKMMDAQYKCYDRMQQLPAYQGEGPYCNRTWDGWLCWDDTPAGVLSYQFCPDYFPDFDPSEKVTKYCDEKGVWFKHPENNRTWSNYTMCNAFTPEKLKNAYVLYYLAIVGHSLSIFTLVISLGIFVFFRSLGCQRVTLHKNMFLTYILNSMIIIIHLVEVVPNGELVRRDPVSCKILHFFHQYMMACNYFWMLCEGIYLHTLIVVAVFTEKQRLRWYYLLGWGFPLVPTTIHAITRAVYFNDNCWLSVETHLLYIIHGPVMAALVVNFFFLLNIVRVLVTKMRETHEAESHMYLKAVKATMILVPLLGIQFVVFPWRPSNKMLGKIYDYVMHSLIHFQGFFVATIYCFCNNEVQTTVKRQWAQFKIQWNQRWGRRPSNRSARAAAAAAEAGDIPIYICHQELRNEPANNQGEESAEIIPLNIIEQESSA", "assay": "Inhibition of phosphorylation of ERK1/2 in GBM cell line A172", "type": "cell-based", "settings": "10^−6M sCT (8-32)", "from_the_text": "FIG. 6. […] (C) is an immunoblot of a crude membrane preparation from the cell line A172 and probed with the anti-CTR antibody MCA2191.\n(§1) The glioblastoma cell line A172 was maintained in DMEM/10% FBS.\nFIG. 6 illustrates the concentration response curves and immunoblot for the GBM cell line A172."}, "CTR [3]": {"molecular_target": "T1, CTR", "assay": "Stimulation of cAMP production (adenylyl cyclase activity) in GBM cell line A172", "type": "cell-based", "settings": "10^−6M sCT (8-32)", "from_the_text": "FIG. 6. […]. (C) is an immunoblot of a crude membrane preparation from the cell line A172 and probed with the anti-CTR antibody MCA2191.\nas §1\nFIG. 6 illustrates the concentration response curves and immunoblot for the GBM cell line A172. […]. The stimulation was inhibited by the antagonist 10^−6M sCT (8-32). In immunoblots (C) of whole cell lysates of A172 probed with the anti-CTR antibody MCA2191, there is a minor band that runs with a mobility of ˜70 kD and a major band at 52 kD."}, "breast cancer xenograft": {"tested_on": "breast cancer xenograft", "settings": "mouse xenograft models of breast cancer; administration of calcitonin; cited from earlier work"}, "T47D": {"tested_on": "T47D", "settings": "cancer cell lines such as T47D; cited from earlier work"}},
  "note": "Entries after “also recorded” stand apart in the source; their conditions may differ. No end group written: not given here.",
  "data": [
    {"substance": "human CT (from UniProt P01258 85-116) (ligand)", "values": [
      {"measurement": "log EC50, inhibition of phosphorylation of ERK1/2 in the GBM cell line A172", "setting": "[1]", "result": -10.5},
      {"measurement": "log EC50, stimulation of adenylyl cyclase activity (cAMP production) in the GBM cell line A172", "setting": "[1]", "result": -9.9}
    ]},
    {"substance": "sCT (8-32): antagonist (also called inverse agonist) of CTR (VLGKLSQELHKLQTYPRTNTGSGTP)", "values": [
      {"measurement": "effect on the hCT inhibition of ERK1/2 phosphorylation", "setting": "CTR [2]", "result": "inhibited; also recorded: antagonised"},
      {"measurement": "effect on the hCT stimulation of adenylyl cyclase activity", "setting": "CTR [3]", "result": "inhibited"}
    ]},
    {"substance": "calcitonin (CGNLSTCMLGTYTQDFNKFHTFPQTAIGVGAP; ends and bridges not checked; cysteine pairing not given here; UniProt P01258 85-116, looked up) [calcitonin (CT), calcitonin receptor agonist]", "values": [
      {"measurement": "tumor volume", "setting": "breast cancer xenograft", "result": "significantly reduced"},
      {"measurement": "cell proliferation", "setting": "T47D", "result": "inhibits cell proliferation"}
    ]}
  ]
}
